Results: patent US20090075270A1

Tests used:
[1] = target: Kid toxin (endoribonuclease) of the parD locus of E. coli plasmid R1 (Escherichia coli plasmid R1) (UniProt P13976); experiment: cell-based or functional assay
[2] = target: T1, Kis antitoxin of the parD locus of E. coli plasmid R1 (wild type), P13975
T1 chain: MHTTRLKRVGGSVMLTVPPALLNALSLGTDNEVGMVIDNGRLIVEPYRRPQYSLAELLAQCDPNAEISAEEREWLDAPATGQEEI

## Kis17, thermo-sensitive mutant Kis antitoxin (P18L) (from UniProt P13975 1-85)
[1]
  repA/copB ratio by Real Time-PCR, kis17kid sample against kiskid sample: 38%

B1: Kid toxin (endoribonuclease) of the parD locus of E. coli plasmid R1 (protein)
chain: MERGEIWLVSLDPTAGHEQQGTRPVLIVTPAAFNRVTRLPVVVPVTSGGNFARTAGFAVSLDGVGIRTTGVVRCDQPRTIDMKARGGKRLERVPETIMNEVLGRLSTILT
[2]
  cleavage of dnaB mRNA in vitro by purified Kid (4 pmols), alone or with Kis (6 pmols); primer extension: dnaB-mRNA is cleaved by Kid in vitro, and that this effect is inhibited when Kis is added to the reaction
